Experiments:
Type in all cases: biochemical
[1] = N—H insertion, aniline with ethyl diazo acetate (EDA); settings: protein 10 uM, EDA 8.5 mM, aniline 20 mM, Na2S2O4 10 mM, 12 h; for % Yield: product 4.3
Excerpt: We have found a variety of P450 variants to be general catalysts for carbenoid N—H insertion. We combined aniline with EDA in the presence of a reductant (Na2S2O4) under argon atmosphere and tested the mixture with seven P450BM3 variants previously identified as competent catalysts for cyclopropanation (Coelho, P. et al., Science. 2013, 339, 307-310). In choosing this set of P450s, we hypothesized that cyclopropanation activity could correlate with ability to generate the iron-carbenoid intermediate that is also necessary for N—H insertion. Whereas wild type BM3 (WT-BM3 (SEQ ID NO:1), Table 20, entry 1) provided only trace amounts of the desired product (4.3), a few variants gave 4.3 in good yields after 12 h at room temperature. In particular, variant H2-5-F10 which is derived from a thermostable P450BM3 lineage (Lewis, J. C. et al. ChemBioChem, 2010, 11, 2502-2505) and contains 15 mutation from WT-BM3 (SEQ ID NO:1), formed 4.3 in 47% yield and 473 turnovers (TTN) using 0.1% protein relative to EDA (entry 7). […] In contrast, when 1 mol % of the isolated hemin prosthetic group was used as catalyst, the single and double insertion products were produced in a 3.5 to 1 ratio (with a total product yield of 51%).
A representative procedure for P450-catalyzed N—H insertion is as follows. To an unsealed crimp vial, 60 μL of a P450 solution (67 or 133 μM) was added and the vial was sealed. A 12.5 mM solution of sodium dithionite in phosphate buffer (0.1 M, pH=8.0) was degassed by bubbling with argon in a 6 mL crimp-sealed vial. The headspace of the 2 mL vials containing P450 solution were flushed with argon (no bubbling). The buffer/dithionite solution (360 μL) was then added to each reaction vial via syringe, and the gas lines were disconnected from the vials. 10 μL of an 800 mM stock of aniline was added via a glass syringe, followed by 10 μL of a 340 mM stock of EDA (both stocks in MeOH). The reaction vials were then placed in a tray on a plate shaker and left to shake at 40 rpm. The final concentrations of the reagents were typically: 20 mM aniline, 8.5 mM EDA, 10 mM Na2S2O4, and 10 or 20 μM P450. After 12 h at 25° C., the vials were removed from the shaker and uncapped and 1 mL of cyclohexane was added, followed by 20 μL of a 20 mM solution of phenethyl alcohol (internal standard). The mixture was transferred to a 1.5 mL Eppendorf tube and vortexed and centrifuged (13,000×g, 1 min.). The organic layer was dried over sodium sulfate if necessary then analyzed by GC, with comparison to an authentically prepared sample that has been verified by proton NMR ([…], Varian, CDCl3).
Substitution is well-tolerated on the aniline partner on both the ortho and para positions. Reactions were analyzed by a Shimadzu GC with FID detector and J&W HP-5 column (30 m×0.32 mm, 0.25 μm film) and calibrated to an independently prepared sample of each product using phenethyl alcohol as internal standard. Reaction of aniline and EDA was also performed in milligram scale without any organic cosolvent to provide 4.3 in 65% isolated yield.
Calibration curves were plotted as follows. Yields of N—H insertion products were determined using calibration curves made with independently synthesized standards that have been verified by proton NMR, with comparison to known literature data (Baumann, L. K. et al. Organometallics. 2007, 26, 3995-4002; Anding, B. J. et al. Organometallics. 2013, 32, 2599-2607). Two stock solutions of product were made at 160 mM and 40 mM. To four or five samples containing 380 μL of buffer, product was added from either of the stock solutions such at a final concentration of 0.5-8.0 mM in 400 μL was obtained. 20 μL of internal standard was added to each eppendorf tube, then 1 mL of cyclohexane was added and the tubes were vortexed and centrifuged (13,000 ×g, 30 seconds). The organic layer was then analyzed by GC. The ratio of the areas under the internal standard and product peaks were plotted against the concentration for each solution. […]

[2] = Small-scale anaerobic C—H amination with purified enzymes, azide 1; settings: catalyst loading 0.5 mol %; NADPH; anaerobic
Experimental: Activities are presented in TTN. […] Yields and enantioselectivies determined by HPLC analysis. * (S−R)/(S+R). nd=not determined.
Enzymes used as purified catalysts were expressed as previously described (Lewis, J. C. et al., Proc. Natl. Acad. Sci. U.S.A. 106, 16550-16555 (2009)), and were purified by anion-exchange chromatography (for holoenzymes) or Ni-NTA chromatography (for isolated heme domains). Concentrations of P450 or P411 enzymes were determined as previously reported (Omura, T. & Sato, R., J. Biol. Chem. 239, 2370-2378 (1964); Vatsis, K. P. et al., J. Inorg. Biochem. 91, 542-553 (2002)). Small-scale reactions (400 μL) were conducted in 2 mL crimp vials containing degassed buffer (0.1 M potassium phosphate pH 8.0), enzyme (0.1-0.5% catalyst loading) and oxygen depletion system (10× stock solution containing 14,000 U/mL catalase, 1,000 U/mL glucose oxidase dissolved in 0.1 M KPi pH 8.0). Enzyme (P450 or P411) solution and oxygen depletion mixture were added to the vial with a small stir bar before crimp-sealing. […] Reactions were stirred at room temperature for 24 h under positive argon pressure.
Small-scale reactions (400 μL) were conducted in 2 mL crimp vials (Agilent Technologies, San Diego, Calif.) containing buffer (0.1 M potassium phosphate pH 8.0), enzyme (0.1-0.5% catalyst loading) and oxygen depletion system (10× stock solution containing 14,000 U/mL catalase, 1,000 U/mL glucose oxidase dissolved in 0.1 M KPi pH 8.0). Enzyme (P450 or P411) solution and oxygen depletion mixture were added to the vial with a small stir bar before crimp-sealing. […] In the meantime, the headspace of the sealed 2 mL reaction vial with the P450 solution was made anaerobic by flushing argon over the protein solution (with no bubbling). The buffer/reductant/glucose solution (270 μL) was syringed into the reaction vial with continuous argon purge of the vial headspace. An arylsulfonyl azide solution in DMSO (10 μL, 80 mM) was added to the reaction vial via a glass syringe, and the reaction was left stirring for 24 h at room temperature under positive argon pressure. […] Reactions were quenched by adding 30 μL 3 M HCl under argon. To the vials were then added acetonitrile (430 uL) and internal standard (o-toluenesulfonamide 10 mM in 50% acetonitrile 50% water, 1 mM final concentration). This mixture was then transferred to a microcentrifuge tube, and centrifuged at 17,000×g for 10 minutes. A portion (20 μL) of the supernatant was then analyzed by HPLC. For LC-MS analysis, the quenched reaction mixture was extracted twice with ethyl acetate (2×350 μL), dried under a light argon stream and resuspended in 50% water-acetonitrile (100 μL). For chiral HPLC the reactions were extracted as above with ethyl acetate, dried and resuspended in DMSO (100 μL) and then C18 purified as described above. The C18 purified material was dried, and resuspended in acetonitrile, and then injected onto the chiral HPLC system for analysis. Sultam formation was quantified comparison of integrated peak areas of internal standard and sultam at 220 nm to a calibration curve made using synthetically produced sultam and internal standard.
Purified enzymes were screened for activity in small scale reactions (400 μL) under anaerobic conditions as described above. Reactions were carried out using 0.5% mol of enzyme (10 μM) with respect to the triethylsulfonyl azide substrate 1 (2 mM). Standard reaction conditions described above were employed. Diethyl benzosultam product 3 (FIG. 18) was analyzed and quantified by reversed-phase HPLC (see above).
Small-scale reactions (400 μL total volume) were set up and worked up. Control reactions were performed with both the holoenzyme (BM3 with covalently linked reductase domain) and the isolated heme domain. […] Reactions of the complete system with heme domain (CS heme) included 2 mM Na2S2O4 rather than NADPH unless otherwise indicated in the table. […]

[3] = P450BM3 compilation plate screen (GC, cyclopropane peaks); settings: P450BM3 variants

Row | Molecule | TTn [1] | % Yield [1] [%] | TTN (C—H amination product 3) [2] | ee (cis) ([3]; (R,S)-(S,R), chiral β-CDX GC) | de ([3]; diastereomeric excess = ([cis] − [trans])/([cis] + [trans])) | Absolute activity ([3]; sum of the area of the cyclopropane peaks over the area of the internal standard)
1 | BM3-CIS: 9-10A TS + F87V, T268A (protein, listed as Bacillus megaterium, cytochrome P450NADPH-P-450 reductase precursor, cytochrome P450 (BM3), CYP102A1, 9-10A TS + F87V, T268A) TIKEMPQPKTFGELKNLPLLNTDKPVQALMKIADELGEIFKFEAPGRVTRYLSSQRLIKEACDESRFDKNLSQALKFARDFAGDGLVTSWTHEKNWKKAHNILLPSFSQQAMKGYHAMMVDIAVQLVQKWERLNADEHIEVSEDMTRLTLDTIGLCGFNYRFNSFYRDQPHPFIISMVRALDEVMNKLQRANPDDPAYDENKRQFQEDIKVMNDLVDKIIADRKARGEQSDDLLTQMLNGKDPETGEPLDDGNIRYQIITFLIAGHEATSGLLSFALYFLVKNPHVLQKVAEEAARVLVDPVPSYKQVKQLKYVGMVLNEALRLWPTAPAFSLYAKEDTVLGGEYPLEKGDEVMVLIPQLHRDKTVWGDDVEEFRPERFENPSAIPQHAFKPFGNGQRACIGQQFALHEATLVLGMMLKHFDFEDHTNYELDIKETLTLKPKGFVVKAKSKKIPLGGIPSPSTEQSAKKVRKKAENAHNTPLLVLYGSNMGTAEGTARDLADIAMSKGFAPQVATLDSHAGNLPREGAVLIVTASYNGHPPDNAKQFVDWLDQASADEVKGVRYSVFGCGDKNWATTYQKVPAFIDETLAAKGAENIADRGEADASDDFEGTYEEWREHMWSDVAAYFNLDIENSEDNKSTLSLQFVDSAADMPLAKMHGAFSTNVVASKELQQPGSARSTRHLEIELPKEASYQEGDHLGVIPRNYEGIVNRVTARFGLDASQQIRLEAEEEKLAHLPLAKTVSVEELLQYVELQDPVTRTQLRAMAAKTVCPPHKVELEALLEKQAYKEQVLAKRLTMLELLEKYPACEMKFSEFIALLPSIRPRYYSISSSPRVDEKQASITVSVVSGEAWSGYGEYKGIASNYLAELQEGDTITCFISTPQSEFTLPKDPETPLIMVGPGTGVAPFRGFVQARKQLKEQGQSLGEAHLYFGCRSPHEDYLYQEELENAQSEGIITLHTAFSRMPNQPKTYVQHVMEQDGKKLIELLDQGAHFYICGDGSQMAPAVEATLMKSYADVHQVSEADARLWLQQLEEKGRYAKDVWAG | 363 | 36 | 9 |  |  | 
2 | H2-4-D4: 9-10A TS + F87V, L75A, M177A, L181A, T268A, L437A (protein, listed as Bacillus megaterium, cytochrome P450NADPH-P-450 reductase precursor, cytochrome P450 (BM3), CYP102A1, 9-10A TS + F87V, L75A, M177A, L181A, T268A, L437A) TIKEMPQPKTFGELKNLPLLNTDKPVQALMKIADELGEIFKFEAPGRVTRYLSSQRLIKEACDESRFDKNLSQAAKFARDFAGDGLVTSWTHEKNWKKAHNILLPSFSQQAMKGYHAMMVDIAVQLVQKWERLNADEHIEVSEDMTRLTLDTIGLCGFNYRFNSFYRDQPHPFIISAVRAADEVMNKLQRANPDDPAYDENKRQFQEDIKVMNDLVDKIIADRKARGEQSDDLLTQMLNGKDPETGEPLDDGNIRYQIITFLIAGHEATSGLLSFALYFLVKNPHVLQKVAEEAARVLVDPVPSYKQVKQLKYVGMVLNEALRLWPTAPAFSLYAKEDTVLGGEYPLEKGDEVMVLIPQLHRDKTVWGDDVEEFRPERFENPSAIPQHAFKPFGNGQRACIGQQFALHEATLVLGMMLKHFDFEDHTNYELDIKETATLKPKGFVVKAKSKKIPLGGIPSPSTEQSAKKVRKKAENAHNTPLLVLYGSNMGTAEGTARDLADIAMSKGFAPQVATLDSHAGNLPREGAVLIVTASYNGHPPDNAKQFVDWLDQASADEVKGVRYSVFGCGDKNWATTYQKVPAFIDETLAAKGAENIADRGEADASDDFEGTYEEWREHMWSDVAAYFNLDIENSEDNKSTLSLQFVDSAADMPLAKMHGAFSTNVVASKELQQPGSARSTRHLEIELPKEASYQEGDHLGVIPRNYEGIVNRVTARFGLDASQQIRLEAEEEKLAHLPLAKTVSVEELLQYVELQDPVTRTQLRAMAAKTVCPPHKVELEALLEKQAYKEQVLAKRLTMLELLEKYPACEMKFSEFIALLPSIRPRYYSISSSPRVDEKQASITVSVVSGEAWSGYGEYKGIASNYLAELQEGDTITCFISTPQSEFTLPKDPETPLIMVGPGTGVAPFRGFVQARKQLKEQGQSLGEAHLYFGCRSPHEDYLYQEELENAQSEGIITLHTAFSRMPNQPKTYVQHVMEQDGKKLIELLDQGAHFYICGDGSQMAPAVEATLMKSYADVHQVSEADARLWLQQLEEKGRYAKDVWAG | 340 | 34 |  | −84 | 57 | 0.05244
